Test results from PMC5074314, “Maltase protein of Ogataea (Hansenula) polymorpha is a counterpart to the resurrected ancestor protein ancMALS of yeast maltases and isomaltases” (Yeast (Chichester, England), 2016).
Blank lines part the entries; values can stand above or below the molecule they belong to.

Key:
[1] = molecular target: T1, Op MAL1 (maltase protein MAL1 of Ogataea polymorpha) (Ogataea angusta, UniProt Q9P8G8); experiment: inhibition of α-pNPG hydrolysis (p-nitrophenol release); format: biochemical; conditions: competitive; 0.1-3.0 mM α-pNPG; 100 mM K-phosphate pH 6.5, 0.1 mM EDTA, 37 °C; 5 min pre-incubation; read-out: K i (mM) of Op maltase
T1 sequence (Q9P8G8 1-564): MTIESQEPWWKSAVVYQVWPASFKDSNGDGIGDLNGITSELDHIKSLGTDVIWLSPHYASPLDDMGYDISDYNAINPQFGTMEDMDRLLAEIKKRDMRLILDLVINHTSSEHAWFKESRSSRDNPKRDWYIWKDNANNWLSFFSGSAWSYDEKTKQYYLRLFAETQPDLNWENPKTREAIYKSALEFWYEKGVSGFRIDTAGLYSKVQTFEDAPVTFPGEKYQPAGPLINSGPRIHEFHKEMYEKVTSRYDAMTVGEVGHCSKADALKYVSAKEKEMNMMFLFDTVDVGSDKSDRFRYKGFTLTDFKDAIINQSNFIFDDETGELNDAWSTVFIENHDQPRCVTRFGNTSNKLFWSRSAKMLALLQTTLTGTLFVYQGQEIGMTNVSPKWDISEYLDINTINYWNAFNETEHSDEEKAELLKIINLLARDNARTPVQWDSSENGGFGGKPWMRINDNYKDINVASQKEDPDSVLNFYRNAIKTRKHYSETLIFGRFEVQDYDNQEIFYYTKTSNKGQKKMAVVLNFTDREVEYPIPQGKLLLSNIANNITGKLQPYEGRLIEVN

purified protein = substrate: O=[N+]([O-])c1ccc(O[C@H]2O[C@H](CO)[C@@H](O)[C@H](O)[C@H]2O)cc1; experiment: purified protein; conditions: 100 mM K-phosphate pH 6.5, 0.1 mM EDTA, 37 °C
[2] = substrate: CO[C@H]1O[C@H](CO)[C@@H](O)[C@H](O)[C@H]1O; experiment: initial rate of glucose release; format: biochemical, Ogataea angusta; conditions: 100 mM K-phosphate pH 6.5, 0.1 mM EDTA, 37 °C
Excerpt: (§1) initial rate of glucose release on Op MAL1 (maltase protein MAL1 of Ogataea polymorpha)

[3] = substrate: OC[C@H]1O[C@@](CO)(O[C@H]2O[C@H](CO)[C@@H](O)[C@H](O)[C@H]2O)[C@@H](O)[C@@H]1O; experiment: initial rate of glucose release; format: biochemical, Ogataea angusta; conditions: 100 mM K-phosphate pH 6.5, 0.1 mM EDTA, 37 °C
Excerpt: as §1

Ki [1]: 5.1 ± 0.7 mM
Molecule: OC[C@H]1OC(O)[C@H](O)[C@@H](O)[C@@H]1O (stereo partly drawn) [D-Glucose]

Molecule: C[C@H]1O[C@H](O[C@H]2[C@H](O)[C@@H](O)[C@@H](O[C@H]3[C@H](O)[C@@H](O)C(O)O[C@@H]3CO)O[C@@H]2CO)[C@H](O)[C@@H](O)[C@@H]1N[C@H]1C=C(CO)[C@@H](O)[C@H](O)[C@H]1O (some centres unmarked) [Acarbose]
Ki [1]: 0.0065 ± 0.0008 mM

B1: Op MAL1 (maltase protein MAL1 of Ogataea polymorpha) (Ogataea angusta) (protein)
chain: MTIESQEPWWKSAVVYQVWPASFKDSNGDGIGDLNGITSELDHIKSLGTDVIWLSPHYASPLDDMGYDISDYNAINPQFGTMEDMDRLLAEIKKRDMRLILDLVINHTSSEHAWFKESRSSRDNPKRDWYIWKDNANNWLSFFSGSAWSYDEKTKQYYLRLFAETQPDLNWENPKTREAIYKSALEFWYEKGVSGFRIDTAGLYSKVQTFEDAPVTFPGEKYQPAGPLINSGPRIHEFHKEMYEKVTSRYDAMTVGEVGHCSKADALKYVSAKEKEMNMMFLFDTVDVGSDKSDRFRYKGFTLTDFKDAIINQSNFIFDDETGELNDAWSTVFIENHDQPRCVTRFGNTSNKLFWSRSAKMLALLQTTLTGTLFVYQGQEIGMTNVSPKWDISEYLDINTINYWNAFNETEHSDEEKAELLKIINLLARDNARTPVQWDSSENGGFGGKPWMRINDNYKDINVASQKEDPDSVLNFYRNAIKTRKHYSETLIFGRFEVQDYDNQEIFYYTKTSNKGQKKMAVVLNFTDREVEYPIPQGKLLLSNIANNITGKLQPYEGRLIEVN
Km (purified protein): 0.52 ± 0.05 mM
kcat (purified protein): 141 s⁻¹
kcat/Km (purified protein): 272000 M⁻¹ s⁻¹
Km [2]: 35.5 ± 3.3 mM
kcat [2]: 30.1 ± 1.1 s⁻¹
kcat/Km [2]: 848 M⁻¹ s⁻¹
Km [3]: 25.1 ± 2.4 mM
kcat [3]: 183 ± 6.95 s⁻¹
kcat/Km [3]: 7290 M⁻¹ s⁻¹
